Experimental data reported in patent US20240109974A1 (SHANDONG SIMCERE BIOPHARMACEUTICAL, published 2024).
Substitutions are numbered along the chain they refer to. Values belong to the binder of their own block, whether it stands above or below them.

Legend:
[1] = target: T1, Human TNFR2-His (Sino 10417-H08H) (human, UniProt P20333 23-257); assay: SPR (Biacore T200), antibody captured on Protein A chip
T1 construct: Bought protein; also called recombinant human TNFR2 protein; not shown: His tag
T1 sequence (looked up): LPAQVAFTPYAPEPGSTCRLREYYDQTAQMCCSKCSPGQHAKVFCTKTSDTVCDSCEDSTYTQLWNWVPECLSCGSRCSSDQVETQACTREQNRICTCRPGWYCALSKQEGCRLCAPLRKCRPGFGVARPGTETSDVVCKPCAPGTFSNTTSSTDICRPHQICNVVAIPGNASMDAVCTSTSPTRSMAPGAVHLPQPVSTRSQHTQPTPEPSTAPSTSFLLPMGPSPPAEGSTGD
Method: (§1) Biacore was used to detect the specific binding of a test anti-TNFR2 antibody to human and cynomolgus monkey TNFR2 proteins. In this experiment, a Protein A chip was used, the time required for the chip to capture the diluted antibody was determined by manual run, so that the Rmax of the saturated binding to an antigen was 50 RU. […] The affinity of an antibody for an antigen was determined by using multi-cycle dynamics. In each cycle, an antibody was injected and then a TNFR2 protein at a gradient concentration was injected, so that the antigen and the antibody underwent binding and dissociation processes. After each cycle, the Protein A chip was regenerated with Glycine pH 1.5 (removing the protein on the chip). The affinity KD of an antibody and an antigen was fitted with BIAcore T200 analysis software.

[2] = target: T2, Cynomolgus TNFR2-His (Sino 90102-C08H) (cynomolgus monkey, UniProt A0A2K5VET2 132-366); assay: as above
T2 construct: Bought protein; also called cynomolgus monkey TNFR2; recombinant cynomolgus monkey TNFR2 protein; not shown: His tag
T2 sequence: T1 sequence (looked up) with S16G, S36P, P117Q, N164H, E210A, S216G, M223V
Method: as §1

[3] = target: T1, Human TNFR2-His (Sino 10417-H08H); assay: ELISA, human TNFR2-His coated
Method: (§2) The test humanized antibody against TNFR2 (as described in Example 1, the antibody was comprised of variable regions linked to IgG-Fc; the WT chimeric antibody also adopted the IgG-Fc structure) was subjected to 3.33-fold gradient dilution, loaded with 100 μl/well, and incubated with shaking at room temperature for 1.5 hours. The plate was washed, and then a working solution of murine anti-human IgG Fc-HRP (diluted at 1:10000) was added, loaded with 100 μl/well, and incubated with shaking at room temperature for 1.0 hour. The plate was washed again, and then the substrate TMB of HRP was added to develop colour. A stop solution was added to stop the reaction, and then a microplate reader (MD 13) was used to read the absorbance value. The binding curve of an antibody was drawn with antibody concentration as the abscissa and corresponding OD value as the ordinate, and fitted with four parameters (GraphPad Prism9) to calculate the EC50 value. The smaller the EC50 value, the stronger the binding ability of an antibody to human/cynomolgus monkey TNFR2. The binding effect of a humanized antibody was normalized to its corresponding human-murine chimeric antibody WT (see SEQ ID NOs: 38-43 for the sequence). The higher the percentage value, the better the binding effect of the humanized antibody. The results of binding of an anti-TNFR2 antibody to a human TNFR2 protein are shown in FIG. 1 and Table 4, and the results of binding of an anti-TNFR2 antibody to cynomolgus monkey TNFR2 are shown in FIG. 2 and Table 4.

[4] = target: T2, Cynomolgus TNFR2-His (Sino 90102-C08H); assay: ELISA, cynomolgus TNFR2-His coated
Method: as §2

[5] = target: T3, human TNFR2 (Novoprotein, Cat #C830) (human, UniProt P20333 23-257, limits assumed); assay: competition ELISA, human TNFR2 coated, competitor human TNFα-Biotin
T3 construct: construct not described; also called human TNFR2 protein
T3 sequence (looked up): T1 sequence (looked up)
Method: (§3) 1 μg/ml human TNFR2 (Novoprotein, Cat #C830) was pre-coated with 100 μl/well […] in an ELISA plate. All the test TNFR2 antibodies were subjected to 2.5-fold gradient dilution from the highest concentration of 30 μg/ml; the diluted antibodies were mixed with 15 ng/ml human TNFα-Biotin (Acro Biosystem, Cat #TNA-H82E3) in equal volume, respectively; the resulting mixture was added to the ELISA plate at 100 μl/well, and incubated with shaking at room temperature for 2.0 hours. The plate was washed, and then a Streptavidin-HRP working solution (diluted at 1:10000) was added at 100 μl/well, and the mixture was incubated with shaking at room temperature for 40 minutes. The plate was washed again, and then the substrate TMB of HRP was added to develop colour. A stop solution was added to stop the reaction, and then a microplate reader (MD 13) was used to read the absorbance value. The inhibitory curve of an antibody was drawn with antibody concentration as the abscissa and corresponding OD value as the ordinate, and fitted with four parameters (GraphPad Prism9) to calculate the IC50 value. The smaller the IC50 value, the stronger the ability of an antibody to inhibit the binding of human TNFα to human TNFR2. The blocking effect of a humanized antibody was normalized to its corresponding human-murine chimeric antibody WT. The higher the percentage value, the better the inhibitory effect of the humanized antibody.

[6] = target: T3, human TNFR2 (Novoprotein, Cat #C830); assay: competition ELISA, competitor human TNFα-Biotin; area under the OD curve
Method: as §3

B2: 001-Hu5 (antibody, V domains shown)
VH: EVQLVESGGGLVQPGGSLRLSCAASGFAFSTYDLSWVRQAPGKGLEWVAYINNGGISTYYSDTVKGRFTISRDNAKNTLYLQMNSLRAEDTAVYYCVRGPFYGSANYFDYWGQGTLVTVSS
VL: DIQMTQSPSSLSASVGDRVTITCRTSESIYSNLPWYQQKPGKSPKLLVYDATKLAEGVPSRFSGSGSGTDYTLTISSLQPEDFATYYCQHFWVTPWTFGQGTKVEIK
notes: Humanized form of #001; also called VH1 + VL4
EC50 [3]: 0.0102 µg/mL
EC50 [4]: 0.00988 µg/mL
Kd [1]: 0.416 nM
koff [1]: 0.000115 s⁻¹
kon [1]: 277000 M⁻¹ s⁻¹
Kd [2]: 0.475 nM
koff [2]: 0.000175 s⁻¹
kon [2]: 369000 M⁻¹ s⁻¹
IC50 [5]: 0.656 µg/mL
AUC [6]: 8.02

B7: 224-WT (antibody, V domains shown)
VH: EVQLQESGPEIVKPGASVKLSCTASGFNNKDIYMHWVKQRPEQGLEWIGRIDPATGNTKHDPKFQDKATLSSDTSSNTAYLQFSSLTSEDTAVYYCAHSPYGDFGAMDYWGQGTTVTVSS
VL: DIQMTQSPAIMSASLGERVTMTCTASSSVSSNYLHWYQQKPGSSPKLWIYSTSNLPSGVPARFSGSGSGTSYSLTISSMEAEDAATYYCHQYHRSPWTFGGGTKLEIK
notes: Human-murine chimeric wild-type molecule; also called human-murine chimeric antibody WT of #224
Kd [1]: 2.33 nM
koff [1]: 0.000405 s⁻¹
kon [1]: 174000 M⁻¹ s⁻¹
Kd [2]: 0.897 nM
koff [2]: 0.000409 s⁻¹
kon [2]: 456000 M⁻¹ s⁻¹

B8: 219-WT (antibody, V domains shown)
VH: EVQLQESGAELVRPGASVKLSCKASGYSFTNYWMNWVKQRPGQGLEWIGMIHPSDTETRLNQNFKDKATLTVDKSSSTSYMQLSSPTSEDSAVYYCARGEGLGAARSVSMDYWGQGTTVTVSS
VL: DILMTQSPSSLSASLGDRVTISCRASQDISNYLNWYQQKPDGTVKVLIYYTAILHSGVPSRFSGSGSGTDYSLTISNLEQEDIATYFCQQGNTLPWTFGGGTKLEIK
notes: Human-murine chimeric wild-type molecule
Kd [1]: 0.554 nM
koff [1]: 0.000192 s⁻¹
kon [1]: 346000 M⁻¹ s⁻¹
Kd [2]: 1.14 nM
koff [2]: 0.000562 s⁻¹
kon [2]: 492000 M⁻¹ s⁻¹

B9: 219-Hu3 (antibody, V domains shown)
VH: QVQLVQSGAEVKKPGSSVKVSCKASGYSFTNYWMNWVRQAPGQGLEWMGMIHPSDTETRLNQNFKDRVTITADKSTSTAYMELSSLRSEDTAVYYCARGEGLGAARSVSMDYWGQGTLVTVSS
VL: B8 VL with L3Q, L15V, S22T, V46L, N77S, E79Q, Q80P, I83F, G100Q, L104V
notes: also called VH5 + VL5
EC50 [3]: 0.021 µg/mL
EC50 [4]: 0.0127 µg/mL
Kd [1]: 0.362 nM
koff [1]: 0.000146 s⁻¹
kon [1]: 403000 M⁻¹ s⁻¹
Kd [2]: 0.723 nM
koff [2]: 0.000399 s⁻¹
kon [2]: 552000 M⁻¹ s⁻¹
IC50 [5]: 0.545 µg/mL
AUC [6]: 8.16

B10: 219-Hu4 (antibody, V domains shown)
VH: B9 VH with R38K, M48I, R67K, V68A, I70L, A72V
VL: B8 VL with L3Q, L15V, S22T, V46L, N77S, E79Q, Q80P, I83F, G100Q, L104V
notes: also called VH6 + VL5
EC50 [3]: 0.0168 µg/mL
EC50 [4]: 0.0123 µg/mL
Kd [1]: 0.318 nM
koff [1]: 0.000154 s⁻¹
kon [1]: 484000 M⁻¹ s⁻¹
Kd [2]: 0.576 nM
koff [2]: 0.000389 s⁻¹
kon [2]: 675000 M⁻¹ s⁻¹
IC50 [5]: 0.606 µg/mL
AUC [6]: 7.66

More lines, in order of falling Kd [1], values ahead:

EC50 [3]: 0.00956 µg/mL
EC50 [4]: 0.00914 µg/mL
Kd [1]: 0.496 nM
koff [1]: 0.000107 s⁻¹
kon [1]: 215000 M⁻¹ s⁻¹
Kd [2]: 0.599 nM
koff [2]: 0.000164 s⁻¹
kon [2]: 273000 M⁻¹ s⁻¹
IC50 [5]: 0.78 µg/mL
AUC [6]: 8.1
B5: 001-Hu2 (antibody, V domains shown)
VH: B2 VH with T78S
VL: B2 VL with V48I, Y71F
notes: Humanized form of #001; also called VH2 + VL2

EC50 [3]: 0.00894 µg/mL
EC50 [4]: 0.00927 µg/mL
Kd [1]: 0.417 nM
koff [1]: 0.000113 s⁻¹
kon [1]: 270000 M⁻¹ s⁻¹
Kd [2]: 0.473 nM
koff [2]: 0.000167 s⁻¹
kon [2]: 354000 M⁻¹ s⁻¹
IC50 [5]: 0.59 µg/mL
AUC [6]: 7.86
B6: 001-Hu4 (antibody, V domains shown)
VH: B2 VH with T78S
VL: B2 VL
notes: Humanized form of #001; also called VH2 + VL4

EC50 [3]: 0.0101 µg/mL
EC50 [4]: 0.0099 µg/mL
Kd [1]: 0.375 nM
koff [1]: 9.91e-05 s⁻¹
kon [1]: 265000 M⁻¹ s⁻¹
Kd [2]: 0.43 nM
koff [2]: 0.000155 s⁻¹
kon [2]: 361000 M⁻¹ s⁻¹
IC50 [5]: 0.597 µg/mL
AUC [6]: 7.87
B4: 001-Hu3 (antibody, V domains shown)
VH: B2 VH
VL: B2 VL with S43A, V48I
notes: Humanized form of #001; also called VH1 + VL3

EC50 [3]: 0.00986 µg/mL
EC50 [4]: 0.00962 µg/mL
Kd [1]: 0.371 nM
koff [1]: 0.000108 s⁻¹
kon [1]: 291000 M⁻¹ s⁻¹
Kd [2]: 0.47 nM
koff [2]: 0.00016 s⁻¹
kon [2]: 340000 M⁻¹ s⁻¹
IC50 [5]: 0.573 µg/mL
AUC [6]: 7.63
B3: 001-Hu1 (antibody, V domains shown)
VH: B2 VH
VL: B2 VL with S43A, V48L
notes: Humanized form of #001; also called VH1 + VL1

EC50 [3]: 0.0213 µg/mL
EC50 [4]: 0.0148 µg/mL
Kd [1]: 0.354 nM
koff [1]: 0.000153 s⁻¹
kon [1]: 433000 M⁻¹ s⁻¹
Kd [2]: 0.532 nM
koff [2]: 0.000332 s⁻¹
kon [2]: 623000 M⁻¹ s⁻¹
IC50 [5]: 0.49 µg/mL
AUC [6]: 7.92
B11: 219-Hu1 (antibody, V domains shown)
VH: B9 VH with S16A, G44R, A72R, K74T, T76A
VL: B8 VL with L3Q, L15V, S22T, V46L, N77S, E79Q, Q80P, I83F, G100Q, L104V
notes: also called VH3 + VL5

EC50 [3]: 0.0185 µg/mL
EC50 [4]: 0.0113 µg/mL
Kd [1]: 0.34 nM
koff [1]: 0.000151 s⁻¹
kon [1]: 443000 M⁻¹ s⁻¹
Kd [2]: 0.681 nM
koff [2]: 0.000412 s⁻¹
kon [2]: 605000 M⁻¹ s⁻¹
IC50 [5]: 0.472 µg/mL
AUC [6]: 7.82
B12: 219-Hu2 (antibody, V domains shown)
VH: B9 VH with R67K, V68A
VL: B8 VL with L3Q, L15V, S22T, V46L, N77S, E79Q, Q80P, I83F, G100Q, L104V
notes: also called VH4 + VL5

Kd [1]: 0.235 nM
koff [1]: 0.000121 s⁻¹
kon [1]: 512000 M⁻¹ s⁻¹
Kd [2]: 0.252 nM
koff [2]: 0.000154 s⁻¹
kon [2]: 614000 M⁻¹ s⁻¹
B1: 001-WT (antibody, V domains shown)
VH: B2 VH with V5Q, R19N, A40T, G42E, G44R, N84S, R87K, A88S, V93M, L116T
VL: EIVMTQSPASLSLSVGETVTITCRTSESIYSNLPWYQQKQGKSPQLLVYDATKLAEGVPSRFSGSESGTQYSLKINSLQSEDFGTYYCQHFWVTPWTFGGGTKLEIK
notes: Human-murine chimeric wild-type molecule; also called human-murine chimeric antibody WT of #001
